Target: porcine trypsin (porcine) (UniProt P00761)
Experiment: cell-based or functional assay

Chain of UniProt P00761 (P00761 9-231 limits assumed): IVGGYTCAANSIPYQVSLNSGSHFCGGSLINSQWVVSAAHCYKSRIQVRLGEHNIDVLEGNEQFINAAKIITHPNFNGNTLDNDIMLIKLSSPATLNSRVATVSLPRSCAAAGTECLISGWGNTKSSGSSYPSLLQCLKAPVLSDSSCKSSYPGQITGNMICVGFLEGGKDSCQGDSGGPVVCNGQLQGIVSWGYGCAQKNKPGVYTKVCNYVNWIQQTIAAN

Row | Substance | KIU/mg Protein (specific activity) (KIU/mg protein)
1 | r-Aprotinin-L (aprotinin variant with Met 52 replaced by leucine) | 7150
2 | r-Aprotinin-Q (aprotinin variant with Met 52 replaced by glutamine) | 7220
3 | r-Aprotinin-V (aprotinin variant with Met 52 replaced by valine) | 7160

Reference: patent publication US20060218667A1
